In publication PMC9958131 (Nature Communications, 2023):

System: PAD2 and PAD4
Assay: Citrullination site mapping of fibrinogen and vimentin by trypsin digestion and mass spectrometry (protein-level sheet, one search over native, PAD2-cit and PAD4-cit samples)
Type: biochemical, human
Conditions: modified residues found per protein; Deamidated [R..] = deamidated (citrullinated) arginine positions; trypsin digest, Sequest HT; not split by sample (native, PAD2-citrullinated, PAD4-citrullinated fibrinogen and vimentin)
Description: Description: Raw mass spectrometry data for proteolytic mapping of fibrinogen, vimentin, and hnRNP A2/B1 by cathepsins B, S, and H (sheets 1-6); citrullination site mapping of fibrinogen and vimentin by trypsin digestion (sheets 7-8); and the natural antigen processing assay with native, PAD2-citrullinated (PAD2-cit), and PAD4-citrullinated (PAD4-cit) fibrinogen (sheets 9-11).

Molecule	Modifications
Q9UM07 (protein) MAQGTLIRVTPEQPTHAVCVLGTLTQLDICSSAPEDCTSFSINASPGVVVDIAHGPPAKKKSTGSSTWPLDPGVEVTLTMKVASGSTGDQKVQISYYGPKTPPVKALLYLTGVEISLCADITRTGKVKPTRAVKDQRTWTWGPCGQGAILLVNCDRDNLESSAMDCEDDEVLDSEDLQDMSLMTLSTKTPKDFFTNHTLVLHVARSEMDKVRVFQATRGKLSSKCSVVLGPKWPSHYLMVPGGKHNMDFYVEALAFPDTDFPGLITLTISLLDTSNLELPEAVVFQDSVVFRVAPWIMTPNTQPPQEVYACSIFENEDFLKSVTTLAMKAKCKLTICPEEENMDDQWMQDEMEIGYIQAPHKTLPVVFDSPRNRGLKEFPIKRVMGPDFGYVTRGPQTGGISGLDSFGNLEVSPPVTVRGKEYPLGRILFGDSCYPSNDSRQMHQALQDFLSAQQVQAPVKLYSDWLSVGHVDEFLSFVPAPDRKGFRLLLASPRSCYKL	Deamidated [R123; R137; R156; R205; R212; R218; R372; R374; R383; R394; R419; R427; R441; R484; R488; R495; R536; R544; R550; R555; R609; R639; R650]
Q9NSB2 (protein) MSCRSYRVSSGHRVGNFSSCSAMTPQNLNRFRANSVSCWSGPGFRGLGSFGSRSVITFGSYSPRIAAVGSRPIHCGVRFGAGCGMGFGDGRGVGLGPRADSCVGLGFGAGSGIGYGFGGPGFGYRVGGVGVPAAPSITAVTVNKSLLTPLNLEIDPNAQRVKKDEKEQIKTLNNKFASFIDKVRFLEQQNKLLETKWSFLQEQKCIRSNLEPLFESYITNLRRQLEVLVSDQARLQAERNHLQDVLEGFKKKYEEEVVCRANAENEFVALKKDVDAAFMNKSDLEANVDTLTQEIDFLKTLYMEEIQLLQSHISETSVIVKMDNSRDLNLDGIIAEVKAQYEEVARRSRADAEAWYQTKYEEMQVTAGQHCDNLRNIRNEINELTRLIQRLKAEIEHAKAQRAKLEAAVAEAEQQGEATLSDAKCKLADLECALQQAKQDMARQLCEYQELMNAKLGLDIEIATYRRLLEGEESRLCEGVGPVNISVSSSRGGLVCGPEP	Deamidated [R184]
Q16610 (protein) MGTTARAALVLTYLAVASAASEGGFTATGQRQLRPEHFQEVGYAAPPSPPLSRSLPMDHPDSSQHGPPFEGQSQVQPPPSQEATPLQQEKLLPAQLPAEKEVGPPLPQEAVPLQKELPSLQHPNEQKEGTPAPFGDQSHPEPESWNAAQHCQQDRSQGGWGHRLDGFPPGRPSPDNLNQICLPNRQHVVYGPWNLPQSSYSHLTRQGETLNFLEIGYSRCCHCRSHTNRLECAKLVWEEAMSRFCEAEFSVKTRPHWCCTRQGEARFSCFQEEAPQPHYQLRACPSHQPDISSGLELPFPPGVPTLDNIKNICHLRRFRSVPRNLPATDPLQRELLALIQLEREFQRCCRQGNNHTCTWKAWEDTLDKYCDREYAVKTHHHLCCRHPPSPTRDECFARRAPYPNYDRDILTIDIGRVTPNLMGHLCGNQRVLTKHKHIPGLIHNMTARCCDLPFPEQACCAEEEKLTFINDLCGPRRNIWRDPALCCYLSPGDEQVNCFN	Deamidated [R171; R343]
P04003 (protein, UniProt P04003 1-597, looked up, full-length) MHPPKTPSGALHRKRKMAAWPFSRLWKVSDPILFQMTLIAALLPAVLGNCGPPPTLSFAAPMDITLTETRFKTGTTLKYTCLPGYVRSHSTQTLTCNSDGEWVYNTFCIYKRCRHPGELRNGQVEIKTDLSFGSQIEFSCSEGFFLIGSTTSRCEVQDRGVGWSHPLPQCEIVKCKPPPDIRNGRHSGEENFYAYGFSVTYSCDPRFSLLGHASISCTVENETIGVWRPSPPTCEKITCRKPDVSHGEMVSGFGPIYNYKDTIVFKCQKGFVLRGSSVIHCDADSKWNPSPPACEPNSCINLPDIPHASWETYPRPTKEDVYVVGTVLRYRCHPGYKPTTDEPTTVICQKNLRWTPYQGCEALCCPEPKLNNGEITQHRKSRPANHCVYFYGDEISFSCHETSRFSAICQGDGTWSPRTPSCGDICNFPPKIAHGHYKQSSSYSFFKEEIIYECDKGYILVGQAKLSCSYSHWSAPAPQCKALCRKPELVNGRLSVDKDQYVEPENVTIQCDSGYGVVGPQSITCSGNRTWYPEVPKCEWETPEGCEQVLTGKRLMQCLPNPEDVKMALEVYKLSLEIEQLELQRDSARQSTLDKEL	Deamidated [R159; R329; R331; R485; R493]
